Experiment: yeast display, Sf9 membrane polyspecificity reagent, FACS + sequencing; frameworks hold sequencing errors
Outline: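 Galactose induction of a Saccharomyces cerevisiae BJ5465 synthetic nanobody display library ran 36–48 hours. The cells were then stained for 1 hour at 4 °C with 10% biotinylated, detergent-solubilized Sf9 membrane reagent, pulled down on streptavidin microbeads and FACS-sorted into low and high (top ~1%) gates on expression and reagent-binding fluorescence. Labels for polyreactivity follow the gate of origin.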

Sequence: QVQHVESGGGLVQAGGSLRLSCAASGNSFRYYTMGWYRQAPGKEREFVAAISWSGGRTRYADSVKGRFTISRDNAMITVYLQMNSLKPEDTAVYYCAAYTPSYGGRDYWGQGTQVTVSS
- polyreactivity (PSR sort gate): low polyreactivity

Sequence: QVQLVESGGGLVQAGGSLRLSCAASGRTFRYYAMGWYRQAPGKERELVARISWRGDSTRYADSVKGRFTISRDNAKNTVYVQMNSLKPEDTAVYYCAADTRFLVGPDKYGYWGQGTQVTESS
- polyreactivity (PSR sort gate): high polyreactivity

Sequence: QGQLVESGGGLVQAGGSLRLSCAASGSTFAYYAMGWYIPAPGKERELVAAITSRGGSTYYADSVKGRFTISRDNAKNTVYLQMNSLKPEDTAVYYCAAVTRNQGSYRYYYWGQGTQVTVSS
- polyreactivity (PSR sort gate): high polyreactivity

Sequence: QVQLVESGGGLVQAGGSLRLSCAASGRTLPIYAMGWYRQAPGKERELVAAISWSGASTYADSVKGRFTISRDNAKYTVYLQMNSLKPEDTAVYYCAAYYESWYSSYGYGYWGQGTQVTVSS
- polyreactivity (PSR sort gate): low polyreactivity

Sequence: QVQLVESGGGLVQAGGSLRISCADSASIFWGYAMGWYREAPGKERELVATIRNRGGSTYYADSVKGRFTISRDNAKYTVYLQMNSLKPEDTAVYYCAAVSYRQYYGWGNYWGQVTQVTVSS
- polyreactivity (PSR sort gate): low polyreactivity

Sequence: QVQLVESGGGLVQAGGSLRLSCAASGITFDYYAMGWYRQAPGKERELVAAITSRGGSTYYADSVKGRFTISRDNAKNTVYLQMNSLKPEDTAVYYCAAVRSGYYNYWGQGTQVTVSS
- polyreactivity (PSR sort gate): high polyreactivity

Sequence: QVQLVESGGGLVQAGGSLRLSCAASGFMFDGYAMGWYRQAPGKERELVAAINFSGGSTYYADSVKGRFTISRDNAKNTVYLQMNSLKPEETAVYYCNADLEWNWVQFGYGYWGQGTQVTVSS
- polyreactivity (PSR sort gate): low polyreactivity

Sequence: QVQLVESGGGLVQAGGSLRLSCAASGITFSYYAMGWYRQAPGKERELVAAISWSGGTTYYADSVKGRFTISRDNAKNTVYLQMNSLKPEDTAVYYCAADGGAVGSDYWGQGTQVTVSS
- polyreactivity (PSR sort gate): high polyreactivity

Sequence: QVQLVESGGGLVQAGGSLRLSCAASGFTFYHYAMGWYRQAPGKERELVATISKRGGSTYYADSVKGRFTISRDNAKNTVYLQMNSLKPEDTAVYYCAAKIYWSSLKMDYWGQGTQVTVSS
- polyreactivity (PSR sort gate): high polyreactivity

Sequence: QDQLVESGGGLVQEGGSLRLSCAASGSTFPYNAMGWYRQAPGKERELVAAITRRAGRTYYADSVKGRFTISRDNAKNTVYLQLNSLKTEDTAVYYCAKSYQRGVYHYVYWGQVTQVTVSS
- polyreactivity (PSR sort gate): high polyreactivity

Sequence: QVQLVESGGGLVQAGGSLRLSCAASGRIFYSNTMGWYRQAPGKVRELVAAISRRGGSTYYADSVKGRFTISRDNAKTTVYLQMNSLKPEDTALYYCNTGYSTRLHDYWGQGTQVTVSS
- polyreactivity (PSR sort gate): high polyreactivity

Sequence: QVQLVESGGGLVQAGGSLRLSCAASGSTFTKYDMGWYRQAPGKERELVAAIRSGGDTNYADSVKGRFTISRDNAKNTVYLQMNSLKPEDTAVYYCAAERGPTNHTSYPWYEYHYWGQGTQVTVSS
- polyreactivity (PSR sort gate): low polyreactivity

Sequence: QVQLQESGGGLVQAGGSLRLSCAASGSIFHLHIMCWYRQAPGKESESVAAISYGTSTYYADSVKGRFTICRDNAKNTVYLQMNSPKPDDTAVYYCAALFLVSKHHHYWGEGTQVTVSS
- polyreactivity (PSR sort gate): low polyreactivity

Sequence: QVHLVESGGGLVQAGGSLRLSCAASGLIFYRYAMGWYRQAPGKERELVATISSGGSTNYADSVKGRFTISRDNAKNTVYLQMNSLKPEDTAVYYCAASRWLYYYLFEYWGQGTQGTVSS
- polyreactivity (PSR sort gate): high polyreactivity

Sequence: QVQLVESGGGLVQAGGSLRLSCAASGSIFISYAMGWYRQAPGKERELVAAITSGGRTNYADSVKGRFTISRDNAKNTVYLQMNSLKPEDTAVYYCAKRQSHSRKYDYWGQGTQVTVSS
- polyreactivity (PSR sort gate): low polyreactivity

Sequence: QVQLVETGGGLVQAGGSLRLICAASGSTFWRNAMGWYRQAPGKERELVATISKSGGRTYYADSVKGRFTISRDNAKNTVYLQMNRLKPEDTAVYYCAADQYWYKPYVGELYDYDYWGQGTQVTVSS
- polyreactivity (PSR sort gate): low polyreactivity

Sequence: QVQLVESGGGLVQAGGSLRLSCAASGSTFWVYGMGWYRQAPGKERELVADITSIGGSTYYADSVKGRFTISRDNAKNTVYLQMNSLKPEDTAVYYCAARETWYPYYWMGYWGQGTQVTVSS
- polyreactivity (PSR sort gate): high polyreactivity

Reference: the nanobody polyreactivity screen of Harvey et al. (2022)
